Positions of bridges follow the written chain, without caps; N, C: chain ends. Non-standard residues stand in square brackets, D forms with d. No end group written: not given here.
How the values were obtained:
[1] = target: rat LDLR on rat brain capillary endothelial cells (RBCEC) (rat) (UniProt P35952); test: cell-based or functional assay
[2] = target: mouse LDLR in tissues of wild-type mice (mouse, UniProt P35951 22-862); test: cell-based or functional assay
[3] = target: T1, human low-density lipoprotein receptor fused with RFP, on CHO-hLDLR-RFP cells (human, UniProt P01130 22-860); test: competition on CHO-hLDLR-RFP cells: 10 uM test peptide against 10 uM SEQ ID NO: 17/STag, STag read by FRET
T1 construct: whole, on cells; also called human LDLR; not shown: red fluorescent protein (RFP) fused at the C-term (intracellular end)

mouse LDLR in tissues of wild-type mice, sequence (P35951 22-862): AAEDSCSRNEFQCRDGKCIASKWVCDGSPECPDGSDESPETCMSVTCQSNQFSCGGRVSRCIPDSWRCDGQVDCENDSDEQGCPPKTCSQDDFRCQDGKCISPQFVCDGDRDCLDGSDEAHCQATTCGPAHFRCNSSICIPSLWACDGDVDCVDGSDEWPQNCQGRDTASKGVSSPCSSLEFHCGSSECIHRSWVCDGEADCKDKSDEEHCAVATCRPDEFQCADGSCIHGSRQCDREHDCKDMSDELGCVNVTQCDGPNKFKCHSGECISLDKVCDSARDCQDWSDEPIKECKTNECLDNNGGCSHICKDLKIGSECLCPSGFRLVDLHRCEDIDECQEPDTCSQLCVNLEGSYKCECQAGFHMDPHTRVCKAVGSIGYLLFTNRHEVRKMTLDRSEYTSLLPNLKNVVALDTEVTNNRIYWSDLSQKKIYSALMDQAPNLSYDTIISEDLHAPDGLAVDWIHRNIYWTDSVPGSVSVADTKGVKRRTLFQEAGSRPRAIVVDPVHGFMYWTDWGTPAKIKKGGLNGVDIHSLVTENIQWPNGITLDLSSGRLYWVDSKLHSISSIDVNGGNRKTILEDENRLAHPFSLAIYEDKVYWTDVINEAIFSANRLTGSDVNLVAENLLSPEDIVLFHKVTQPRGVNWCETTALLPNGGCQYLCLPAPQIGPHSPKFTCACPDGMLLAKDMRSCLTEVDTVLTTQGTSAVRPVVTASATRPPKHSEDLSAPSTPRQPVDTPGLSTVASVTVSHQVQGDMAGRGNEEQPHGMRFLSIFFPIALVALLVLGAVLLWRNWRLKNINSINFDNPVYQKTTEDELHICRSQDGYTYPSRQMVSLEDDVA
rat LDLR on rat brain capillary endothelial cells (RBCEC) (rat), sequence (P35952 22-879): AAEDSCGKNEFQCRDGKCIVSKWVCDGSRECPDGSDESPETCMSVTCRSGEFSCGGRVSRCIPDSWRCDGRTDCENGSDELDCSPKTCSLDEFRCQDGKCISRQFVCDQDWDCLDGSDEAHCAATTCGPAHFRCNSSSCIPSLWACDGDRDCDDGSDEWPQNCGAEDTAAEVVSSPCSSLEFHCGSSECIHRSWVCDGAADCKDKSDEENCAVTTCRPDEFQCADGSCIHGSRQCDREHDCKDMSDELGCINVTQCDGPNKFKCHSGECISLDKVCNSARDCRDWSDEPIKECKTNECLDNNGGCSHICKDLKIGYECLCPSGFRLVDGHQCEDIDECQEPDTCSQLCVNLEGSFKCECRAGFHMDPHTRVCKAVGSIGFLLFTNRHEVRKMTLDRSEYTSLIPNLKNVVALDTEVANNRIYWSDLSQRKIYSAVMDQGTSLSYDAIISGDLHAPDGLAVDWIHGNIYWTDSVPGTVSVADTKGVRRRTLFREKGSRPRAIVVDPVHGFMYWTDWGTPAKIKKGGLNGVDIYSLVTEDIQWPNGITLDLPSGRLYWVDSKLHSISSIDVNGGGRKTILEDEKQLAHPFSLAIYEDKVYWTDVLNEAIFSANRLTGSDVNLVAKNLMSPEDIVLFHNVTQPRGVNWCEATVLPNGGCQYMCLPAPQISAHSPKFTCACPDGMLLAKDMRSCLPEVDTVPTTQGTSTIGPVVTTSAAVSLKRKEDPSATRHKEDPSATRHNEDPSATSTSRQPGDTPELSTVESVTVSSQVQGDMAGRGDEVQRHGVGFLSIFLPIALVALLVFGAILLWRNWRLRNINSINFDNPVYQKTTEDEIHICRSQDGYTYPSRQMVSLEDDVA

## LDL made fluorescent by adsorption of DiI (ligand)
[1]
  saturation of the transport into the lower compartment of the in-vitro BBB model (WT) (µg per insert): 4

B1: peptide SEQ ID NO: 5 radiolabelled using tritium (peptide)
peptide: XMXRLRGC
modifications: (D)-pen at 1; Thz at 3; tritiated, by the method of Example IX a tritiated propionyl group on the N-term amine
[2]
  peptide concentration in the adrenal glands, LDLR-KO mice compared to wild-type mice, 10 min after intravenous injection: ~2 fold decrease
  peptide concentration in the intestine, LDLR-KO mice compared to wild-type mice, 10 min after intravenous injection: ~6 fold decrease
  peptide concentration in the liver, LDLR-KO mice compared to wild-type mice, 10 min after intravenous injection: ~5 fold decrease

B2: peptide SEQ ID NO: 10 (peptide)
peptide: [dC]MPRLR[dA]C
modifications: disulfide 1-8 (inferred)
notes: also called (D)-cys-Met-Pro-Arg-Leu-Arg-(D)-ala-Cys
[3]
  Displacement of the control peptide: 54%

Reference: patent US20130108548A1 (VECT HORUS, published 2013)
